Measured values as given in patent publication US9629804B2, “Lipid formulations for delivery of messenger RNA” (Shire Human Genetic Therapies, Inc., priority 2013, dated 2017).

Tested on: BHK-21 cells
Experiment: hSMN-1 western blot of BHK-21 cells transfected with hSMN mRNA
Format: cell-based
Conditions: one microgram mRNA, Lipofectamine 2000, 16-18 hours post-transfection
Description: Standard western blot procedures were followed employing various antibodies that recognizes hSMN protein, such as: (A) anti-SMN 4F11 antibody at 1:1,000 dilution; (B) Pierce PA5-27309a-SMN antibody at 1:1,000 dilution; and (C) LSBio C138149a-SMN antibody at 1:1,000 dilution. For each experiment one microgram of hSMN mRNA was transfected into ˜1×10^6 BHK-21 cells using Lipofectamine 2000. Cells were treated with OptiMem and harvested 16-18 hours post-transfection. Cell lysates were harvested, processed and loaded on to an 8-16% Tris Glycine gel. The gel was transferred using a PVDF membrane and treated with the respective primary antibody. Goat anti-mouse HRP antibody was used as the secondary antibody at 1:10,000 dilution for 45 minutes at room temperature followed by washing and development.

B1: hSMN mRNA: codon-optimized human Survival of Motor Neuron-1 messenger RNA (SEQ ID NO: 4), in vitro transcribed, Cap 1, poly(A) tail (nucleic acid)
chain: GGACAGAUCGCCUGGAGACGCCAUCCACGCUGUUUUGACCUCCAUAGAAGACACCGGGACCGAUCCAGCCUCCGCGGCCGGGAACGGUGCAUUGGAACGCGGAUUCCCCGUGCCAAGAGUGACUCACCGUCCUUGACACGAUGGCCAUGAGCAGCGGAGGCAGCGGCGGAGGAGUGCCCGAGCAGGAGGACAGCGUGCUGUUCAGGAGAGGCACCGGCCAGAGCGAUGACAGCGAUAUCUGGGACGAUACCGCUCUGAUCAAGGCCUACGACAAGGCCGUGGCCAGCUUCAAGCACGCCCUGAAAAACGGCGACAUCUGCGAGACCAGCGGCAAGCCCAAGACAACCCCCAAGAGAAAGCCCGCCAAGAAGAAUAAGAGCCAGAAAAAGAACACCGCCGCCAGCCUGCAGCAGUGGAAGGUGGGCGACAAGUGCAGCGCCAUCUGGAGCGAGGACGGCUGCAUCUACCCCGCCACCAUCGCCAGCAUCGACUUCAAGAGAGAGACCUGCGUGGUCGUGUACACCGGCUACGGCAACAGAGAGGAGCAGAACCUGAGCGACCUGCUGAGCCCCAUUUGUGAGGUGGCCAAUAACAUCGAACAGAACGCCCAGGAGAACGAGAAUGAAAGCCAGGUGAGCACCGACGAGAGCGAGAACAGCAGAUCUCCUGGCAACAAGAGCGACAACAUCAAGCCUAAGUCUGCCCCUUGGAACAGCUUCCUGCCCCCUCCUCCACCCAUGCCCGGACCCAGACUGGGACCCGGAAAACCUGGCCUGAAGUUCAACGGACCACCUCCCCCUCCACCUCCUCCCCCACCUCAUCUCCUGAGCUGCUGGCUGCCACCCUUCCCCAGCGGACCCCCUAUCAUCCCACCACCCCCUCCCAUCUGCCCCGACAGCCUGGACGACGCCGAUGCCCUGGGCAGCAUGCUGAUCAGCUGGUACAUGAGCGGCUACCACACAGGAUACUACAUGGGCUUCAGACAGAACCAGAAGGAGGGCAGAUGCUCCCACUCCCUGAACUGACGGGUGGCAUCCCUGUGACCCCUCCCCAGUGCCUCUCCUGGCCCUGGAAGUUGCCACUCCAGUGCCCACCAGCCUUGUCCUAAUAAAAUUAAGUUGCAUCAAAGCU
modifications: Cap 1, poly(A) tail
western blot signal for hSMN-1 protein in transfected BHK-21 cells: strong signal for hSMN-1
